# Experimental data published in patent US9458189B2, “Ligation of stapled polypeptides” (President and Fellows of Harvard College, priority 2008, dated 2016).
# Primed or numbered codes have the meaning given here. No end group written: not given here. *: point of attachment. FITC = O=C1OC2(c3ccc(O)cc3Oc3cc(O)ccc32)c2ccc(NC(=S)*)cc21; PEG3′ = not defined here
# Experiment: Circular dichroism of Max basic region peptides
# Assay type: physicochemical
# Settings: circular dichroism wavelength scans; 100 uM peptide in water
# Procedure: Each of the synthesized peptides were purified by HPLC and biochemically characterized. Each peptide was diluted in water to a final concentration of 100 uM using the extinction coefficient of FITC at 495 nm in 50 mM NaH2PO4, pH 8.0. […] One peptide, i, i+4 version 1, was chosen to be synthesized so as to contain a C-terminal thioester. The peptide was synthesized using t-Boc chemistry on 3-S-trityl-mercaptopropionyl resin. The peptide was purified by HPLC and the desired product was confirmed by LC/MS analysis.
substance,measurement,value
"unmodified basic region peptide: unmodified DNA binding basic region of Max (RAHHNALERKRR, SEQ ID NO: 2) with N-terminal PEG-3 linker and FITC ({FITC-PEG3′}-RAHHNALERKRR)",CD profile (secondary structure in solution),disordered in solution
